{"source": "patent US20030232013A1", "about": "“Therapeutic and diagnostic targeting of cancers cells with tumor homing peptides” (priority 2002, published 2003)", "assay": "In vivo biodistribution in MB-231 tumor bearing SCID mice", "settings": "female, ICR SCID, mouse, iv, total radioactivity; for tissue uptake at 1 h / dose excreted at 1 h: 1 hour post-injection; for tissue uptake at 24 h / dose excreted at 24 h: 24 hours post-injection", "source_text": "In vivo iodistribution studies. Four- to 5-week old female ICR SCID ([…]) outbred mice were obtained from Taconic (Germantown, N.Y.). The mice were housed five animals per cage in sterile micro isolator cages in a temperature- and humidity-controlled room with a 12-hour light/12-hour dark schedule. The animals were fed autoclaved rodent chow (Ralston Purina Company, St. Louis, Mo.) and water ad libitum. Animals were housed one week prior to inoculation of tumor cells and anesthetized for injections with isoflurane (Baxter Healthcare Corp., Deerfield, Ill.) at a rate of 2.5% with 0.4L oxygen through a non-rebreathing anesthesia vaporizer.\nHuman breast cancer MB231 and T47D cells were injected on the bilateral subcutaneous (s.c.) flank with ˜5×10^6 cells in a suspension of 100 μl normal sterile saline per injection site. MB231 and T47D cells were allowed to grow in vivo two to three weeks post inoculation developing tumors ranging in sizes from 0.02-1.30 grams. The biodistribution and uptake of ^111In-DOTA-Phe^19-STh or ^111In-DOTA-6-Ahx-Phe^19-STh in tumor bearing SCID mice was studied. The mice (average weight, 25 g) were injected with aliquots (50-100 μl) of the radiolabeled peptide solution (55-75 kBq) in each animal via the tail vein. Tissues, organs and tumors were excised from the animals sacrificed at 1 hr, 4 hrs and 24 hrs p.i. For blocking studies, an access of non-radioactive 6-Ahx-Phe^19-STh (100 μg) was also injected along with the radiolabeled peptide solution. The radioactivity was measured in a NaI counter and the percent-injected dose per organ and the percent-injected dose per gram tissue were calculated (Tables 5 and 6). Animal studies were conducted in accordance with the highest standards of care as outlined in the NIH guide for Care and Use of Laboratory Animals and the Policy and Procedures for Animal Research at the Harry S. Truman Memorial VA Hospital and according to approved protocols.", "note": "Where two headings read alike, the source gives them in different places. Bridge positions count the residues as written; N and C are the ends. Peptide text beside a SMILES is read from it. * marks the point of attachment. DOTA = O=C(O)CN1CCN(CC(=O)O)CCN(CC(=O)*)CCN(CC(=O)O)CC1; Ahx = NCCCCCC(=O)O", "data": [{"smiles": "CC(C)C[C@@H]1NC(=O)[C@H](CCC(=O)O)NC(=O)[C@@H]2CSSC[C@@H]3NC(=O)[C@H](C)NC(=O)[C@@H]4CCCN4C(=O)[C@H](CC(N)=O)NC(=O)[C@H](CSSC[C@H](NC(=O)[C@H](Cc4ccc(O)cc4)NC(=O)[C@H](CC(N)=O)NC(=O)[C@H](CO)NC(=O)[C@H](CO)NC(=O)[C@H](CC(N)=O)NC(=O)CCCCCNC(=O)CN4CCN(CC(=O)O)CCN(CC(=O)O)CCN(CC(=O)O)CC4)C(=O)N2)NC(=O)[C@H](CSSC[C@@H](C(=O)N[C@@H](Cc2ccccc2)C(=O)O)NC(=O)CNC(=O)[C@H]([C@@H](C)O)NC3=O)NC1=O", "note": "[^111In-DOTA-6-Ahx-Phe^19-STh, metal not drawn] ({DOTA-Ahx}-NSSNYCCELCCNPACTGCF-OH; disulfide 6-11, 7-15, 10-18)", "values": [{"measurement": "tissue uptake at 1 h", "setting": "MB-231 tumor, MB-231 tumor, Blocking (100 μg non-radioactive 6-Ahx-Phe^19-STh co-injected), n = 4, read-out: biodistribution, Tumor", "result": "0.84 ± 0.3", "unit": "%ID/g"}, {"measurement": "tissue uptake at 1 h", "setting": "MB-231 tumor, MB-231 tumor, n = 5, read-out: biodistribution, Tumor", "result": "0.7 ± 0.16", "unit": "%ID/g"}, {"measurement": "tissue uptake at 4 h", "setting": "MB-231 tumor, MB-231 tumor, 4 hours post-injection, n = 5, read-out: biodistribution, Tumor", "result": "0.24 ± 0.12", "unit": "%ID/g"}, {"measurement": "tissue uptake at 24 h", "setting": "MB-231 tumor, MB-231 tumor, n = 4, read-out: biodistribution, Tumor", "result": "0.13 ± 0.16", "unit": "%ID/g"}, {"measurement": "tissue uptake at 1 h", "setting": "blood, Blocking (100 μg non-radioactive 6-Ahx-Phe^19-STh co-injected), n = 4, read-out: biodistribution, Blood", "result": "0.85 ± 0.31", "unit": "%ID/g"}, {"measurement": "tissue uptake at 1 h", "setting": "blood, n = 5, read-out: biodistribution, Blood", "result": "0.57 ± 0.13", "unit": "%ID/g"}, {"measurement": "tissue uptake at 4 h", "setting": "blood, 4 hours post-injection, n = 5, read-out: biodistribution, Blood", "result": "0.04 ± 0.05", "unit": "%ID/g"}, {"measurement": "tissue uptake at 24 h", "setting": "blood, n = 4, read-out: biodistribution, Blood", "result": "0.01 ± 0.02", "unit": "%ID/g"}, {"measurement": "dose excreted at 24 h", "setting": "faeces, n = 4, read-out: biodistribution, Feces (Avg % ID)", "result": "14.2 ± 17.3", "unit": "%"}, {"measurement": "tissue uptake at 1 h", "setting": "heart, Blocking (100 μg non-radioactive 6-Ahx-Phe^19-STh co-injected), n = 4, read-out: biodistribution, Heart", "result": "0.24 ± 0.11", "unit": "%ID/g"}, {"measurement": "tissue uptake at 1 h", "setting": "heart, n = 5, read-out: biodistribution, Heart", "result": "0.14 ± 0.03", "unit": "%ID/g"}, {"measurement": "tissue uptake at 4 h", "setting": "heart, 4 hours post-injection, n = 5, read-out: biodistribution, Heart", "result": "0.06 ± 0.06", "unit": "%ID/g"}, {"measurement": "tissue uptake at 24 h", "setting": "heart, n = 4, read-out: biodistribution, Heart", "result": "0.03 ± 0.03", "unit": "%ID/g"}, {"measurement": "tissue uptake at 1 h", "setting": "kidney, Blocking (100 μg non-radioactive 6-Ahx-Phe^19-STh co-injected), n = 4, read-out: biodistribution, Kidney", "result": "12.8 ± 2.01", "unit": "%ID/g"}, {"measurement": "tissue uptake at 1 h", "setting": "kidney, n = 5, read-out: biodistribution, Kidney", "result": "4.98 ± 0.67", "unit": "%ID/g"}, {"measurement": "tissue uptake at 4 h", "setting": "kidney, 4 hours post-injection, n = 5, read-out: biodistribution, Kidney", "result": "4.96 ± 0.5", "unit": "%ID/g"}, {"measurement": "tissue uptake at 24 h", "setting": "kidney, n = 4, read-out: biodistribution, Kidney", "result": "2.94 ± 0.42", "unit": "%ID/g"}, {"measurement": "tissue uptake at 1 h", "setting": "large intestine, Blocking (100 μg non-radioactive 6-Ahx-Phe^19-STh co-injected), n = 4, read-out: biodistribution, Large Intestine", "result": "0.17 ± 0.03", "unit": "%ID/g"}, {"measurement": "tissue uptake at 1 h", "setting": "large intestine, n = 5, read-out: biodistribution, Large Intestine", "result": "0.37 ± 0.05", "unit": "%ID/g"}, {"measurement": "tissue uptake at 4 h", "setting": "large intestine, 4 hours post-injection, n = 5, read-out: biodistribution, Large Intestine", "result": "0.66 ± 0.52", "unit": "%ID/g"}, {"measurement": "tissue uptake at 24 h", "setting": "large intestine, n = 4, read-out: biodistribution, Large Intestine", "result": "1.5 ± 2.59", "unit": "%ID/g"}, {"measurement": "tissue uptake at 1 h", "setting": "liver, Blocking (100 μg non-radioactive 6-Ahx-Phe^19-STh co-injected), n = 4, read-out: biodistribution, Liver", "result": "0.33 ± 0.06", "unit": "%ID/g"}, {"measurement": "tissue uptake at 1 h", "setting": "liver, n = 5, read-out: biodistribution, Liver", "result": "0.2 ± 0.03", "unit": "%ID/g"}, {"measurement": "tissue uptake at 4 h", "setting": "liver, 4 hours post-injection, n = 5, read-out: biodistribution, Liver", "result": "0.09 ± 0.02", "unit": "%ID/g"}, {"measurement": "tissue uptake at 24 h", "setting": "liver, n = 4, read-out: biodistribution, Liver", "result": "0.05 ± 0.02", "unit": "%ID/g"}, {"measurement": "tissue uptake at 1 h", "setting": "lung, Blocking (100 μg non-radioactive 6-Ahx-Phe^19-STh co-injected), n = 4, read-out: biodistribution, Lung", "result": "0.49 ± 0.12", "unit": "%ID/g"}, {"measurement": "tissue uptake at 1 h", "setting": "lung, n = 5, read-out: biodistribution, Lung", "result": "0.31 ± 0.04", "unit": "%ID/g"}, {"measurement": "tissue uptake at 4 h", "setting": "lung, 4 hours post-injection, n = 5, read-out: biodistribution, Lung", "result": "0.08 ± 0.05", "unit": "%ID/g"}, {"measurement": "tissue uptake at 24 h", "setting": "lung, n = 4, read-out: biodistribution, Lung", "result": "0.01 ± 0.02", "unit": "%ID/g"}, {"measurement": "tissue uptake at 1 h", "setting": "muscle, Blocking (100 μg non-radioactive 6-Ahx-Phe^19-STh co-injected), n = 4, read-out: biodistribution, Muscle", "result": "0.1 ± 0.08", "unit": "%ID/g"}, {"measurement": "tissue uptake at 1 h", "setting": "muscle, n = 5, read-out: biodistribution, Muscle", "result": "0.1 ± 0.08", "unit": "%ID/g"}, {"measurement": "tissue uptake at 4 h", "setting": "muscle, 4 hours post-injection, n = 5, read-out: biodistribution, Muscle", "result": "0.04 ± 0.05", "unit": "%ID/g"}, {"measurement": "tissue uptake at 24 h", "setting": "muscle, n = 4, read-out: biodistribution, Muscle", "result": "0.02 ± 0.04", "unit": "%ID/g"}, {"measurement": "tissue uptake at 1 h", "setting": "pancreas, Blocking (100 μg non-radioactive 6-Ahx-Phe^19-STh co-injected), n = 4, read-out: biodistribution, Pancreas", "result": "0.21 ± 0.04", "unit": "%ID/g"}, {"measurement": "tissue uptake at 1 h", "setting": "pancreas, n = 5, read-out: biodistribution, Pancreas", "result": "0.13 ± 0.03", "unit": "%ID/g"}, {"measurement": "tissue uptake at 4 h", "setting": "pancreas, 4 hours post-injection, n = 5, read-out: biodistribution, Pancreas", "result": "0.05 ± 0.02", "unit": "%ID/g"}, {"measurement": "tissue uptake at 24 h", "setting": "pancreas, n = 4, read-out: biodistribution, Pancreas", "result": "0.03 ± 0.02", "unit": "%ID/g"}, {"measurement": "tissue uptake at 1 h", "setting": "small intestine, Blocking (100 μg non-radioactive 6-Ahx-Phe^19-STh co-injected), n = 4, read-out: biodistribution, Small Intestine", "result": "0.85 ± 1.19", "unit": "%ID/g"}, {"measurement": "tissue uptake at 1 h", "setting": "small intestine, n = 5, read-out: biodistribution, Small Intestine", "result": "0.99 ± 0.18", "unit": "%ID/g"}, {"measurement": "tissue uptake at 4 h", "setting": "small intestine, 4 hours post-injection, n = 5, read-out: biodistribution, Small Intestine", "result": "0.28 ± 0.07", "unit": "%ID/g"}, {"measurement": "tissue uptake at 24 h", "setting": "small intestine, n = 4, read-out: biodistribution, Small Intestine", "result": "0.21 ± 0.13", "unit": "%ID/g"}, {"measurement": "tissue uptake at 1 h", "setting": "spleen, Blocking (100 μg non-radioactive 6-Ahx-Phe^19-STh co-injected), n = 4, read-out: biodistribution, Spleen", "result": "0.12 ± 0.14", "unit": "%ID/g"}, {"measurement": "tissue uptake at 1 h", "setting": "spleen, n = 5, read-out: biodistribution, Spleen", "result": "0.15 ± 0.1", "unit": "%ID/g"}, {"measurement": "tissue uptake at 4 h", "setting": "spleen, 4 hours post-injection, n = 5, read-out: biodistribution, Spleen", "result": "0.05 ± 0.05", "unit": "%ID/g"}, {"measurement": "tissue uptake at 24 h", "setting": "spleen, n = 4, read-out: biodistribution, Spleen", "result": "0.02 ± 0.04", "unit": "%ID/g"}, {"measurement": "tissue uptake at 1 h", "setting": "stomach, Blocking (100 μg non-radioactive 6-Ahx-Phe^19-STh co-injected), n = 4, read-out: biodistribution, Stomach", "result": "2.18 ± 3.69", "unit": "%ID/g"}, {"measurement": "tissue uptake at 1 h", "setting": "stomach, n = 5, read-out: biodistribution, Stomach", "result": "0.31 ± 0.33", "unit": "%ID/g"}, {"measurement": "tissue uptake at 4 h", "setting": "stomach, 4 hours post-injection, n = 5, read-out: biodistribution, Stomach", "result": "0.03 ± 0.01", "unit": "%ID/g"}, {"measurement": "tissue uptake at 24 h", "setting": "stomach, n = 4, read-out: biodistribution, Stomach", "result": "0.09 ± 0.09", "unit": "%ID/g"}, {"measurement": "dose excreted at 1 h", "setting": "urine, Blocking (100 μg non-radioactive 6-Ahx-Phe^19-STh co-injected), n = 4, read-out: biodistribution, Urine (Avg % ID)", "result": "87.4 ± 4.5", "unit": "%"}, {"measurement": "dose excreted at 1 h", "setting": "urine, n = 5, read-out: biodistribution, Urine (Avg % ID)", "result": "89.4 ± 2.9", "unit": "%"}, {"measurement": "dose excreted at 4 h", "setting": "urine, 4 hours post-injection, n = 5, read-out: biodistribution, Urine (Avg % ID)", "result": "95.8 ± 1.4", "unit": "%"}, {"measurement": "dose excreted at 24 h", "setting": "urine, n = 4, read-out: biodistribution, Urine (Avg % ID)", "result": "82.5 ± 20.3", "unit": "%"}]}]}
